Measured values as given in patent US20240247080A1, “GLP1/GIP/NPY2 RECEPTOR TRIPLE AGONISTS” (Boehringer Ingelheim International GmbH, priority 2022, published 2024).
Where a chain is given by its changes, count along the chain named. Starred links: 1 amine or outer side, 2 acyl side, 3 side chain; linkers in the order of their positions; H or OH if unused. Non-standard residues stand in square brackets, D forms with d. Groups on a side chain read outwards from the residue. No end group written: not given here. *: point of attachment. C20 diacid = O=C(O)CCCCCCCCCCCCCCCCCCC(=O)*; C18 diacid = O=C(O)CCCCCCCCCCCCCCCCC(=O)*; γGlu = O=C(O)[C@H](CCC(=O)[*:2])N[*:1]; εLys = N[C@@H](CCCCN[*:1])C(=O)[*:2]; glu = not defined here; AEEA = NCCOCCOCC(=O)O; Aib = CC(C)(N)C(=O)O

B1: Compound 180 (peptide)
peptide: YXEGTFTSDYSIXLEKQAQXAFVEWLIKGGPSSPASLRHYYNWLTRQRY
modifications: Aib at 2, 13, 20; K28 side chain carries C18DA-gGlu-gGlu-gGlu-gGlu-gGlu; C-terminal amide
B2: Compound 197 (peptide)
peptide: B1 peptide with P34G, S36L
modifications: Aib at 2, 13, 20; K28 side chain carries C20DA-gGlu-gGlu-gGlu-gGlu-gGlu-gGlu-eLys; C-terminal amide
B3: Compound 191 (peptide)
peptide: B1 peptide with P34G, Y49X
modifications: Aib at 2, 13, 20; Tle at 49; K28 side chain carries C20DA-gGlu-gGlu-gGlu-gGlu-gGlu-gGlu-eLys; C-terminal amide
B4: Compound 190 (peptide)
peptide: B1 peptide with P34G, L44R
modifications: Aib at 2, 13, 20; D-Arg at 44; K28 side chain carries C20DA-gGlu-gGlu-gGlu-gGlu-Glu-gGlu-eLys (so in the source); C-terminal amide
B5: Compound 186 (peptide)
peptide: B1 peptide with E24Q, S33E, P34G, Q47X
modifications: Aib at 2, 13, 20; bHGln (beta-homo-L-glutamine) at 47; K28 side chain carries C20DA-gGlu-gGlu-gGlu-gGlu-gGlu-gGlu-eLys; C-terminal amide
B6: Compound 182 (peptide)
peptide: B1 peptide with P34G, H39X
modifications: Aib at 2, 13, 20, 39; K28 side chain carries C20DA-gGlu-gGlu-gGlu-gGlu-gGlu-gGlu-eLys; C-terminal amide
B7: Compound 195 (peptide)
peptide: B1 peptide with P34G, W43L
modifications: Aib at 2, 13, 20; K28 side chain carries C20DA-gGlu-gGlu-gGlu-gGlu-gGlu-gGlu-eLys; C-terminal amide
B8: Compound 196 (peptide)
peptide: B1 peptide with E24Q, S32E, S33E, P34G
modifications: Aib at 2, 13, 20; K28 side chain carries C18DA-E-E-E-E-E-E-eLys (SEQ ID NO: 643); C-terminal amide
B9: Compound 184 (peptide)
peptide: B1 peptide with P34G, Y41X
modifications: Aib at 2, 13, 20, 41; K28 side chain carries C20DA-gGlu-gGlu-gGlu-gGlu-gGlu-gGlu-eLys; C-terminal amide

Experiments:
Assay in all cases: cell-based or functional assay
GLP-1 receptor = GLP-1 receptor (human (printed as hGLP1R), UniProt P43220 24-463)
GIP receptor = target: T1, GIP receptor (human (printed as hGIPR), UniProt P48546 22-466)
T1 sequence (looked up): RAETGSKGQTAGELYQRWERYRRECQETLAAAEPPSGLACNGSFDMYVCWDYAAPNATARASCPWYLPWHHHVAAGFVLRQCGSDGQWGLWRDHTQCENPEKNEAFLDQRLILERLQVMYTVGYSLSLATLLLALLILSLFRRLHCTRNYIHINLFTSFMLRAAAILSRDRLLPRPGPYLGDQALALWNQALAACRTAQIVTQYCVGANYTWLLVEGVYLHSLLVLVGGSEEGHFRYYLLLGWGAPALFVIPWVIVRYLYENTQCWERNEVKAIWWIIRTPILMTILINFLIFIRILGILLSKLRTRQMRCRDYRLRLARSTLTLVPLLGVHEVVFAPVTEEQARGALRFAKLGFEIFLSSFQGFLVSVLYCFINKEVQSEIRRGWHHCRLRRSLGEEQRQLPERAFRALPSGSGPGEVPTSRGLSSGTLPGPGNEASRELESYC

NPY2 receptor = target: T2, NPY2 receptor (human (printed as hNPY2R), UniProt P49146 1-381)
T2 sequence (looked up): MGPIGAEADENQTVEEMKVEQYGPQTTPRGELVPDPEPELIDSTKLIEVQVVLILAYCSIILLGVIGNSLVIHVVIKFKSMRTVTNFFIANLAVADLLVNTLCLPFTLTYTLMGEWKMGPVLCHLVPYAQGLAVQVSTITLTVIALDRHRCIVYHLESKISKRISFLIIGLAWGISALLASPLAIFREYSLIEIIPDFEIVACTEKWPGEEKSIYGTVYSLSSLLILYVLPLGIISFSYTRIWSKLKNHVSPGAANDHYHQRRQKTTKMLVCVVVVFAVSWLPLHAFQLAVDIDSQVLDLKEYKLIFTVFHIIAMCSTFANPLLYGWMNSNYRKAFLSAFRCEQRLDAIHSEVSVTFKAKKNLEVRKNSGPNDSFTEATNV

| Binder | EC50 hGLP1R 0.5% hP (CreLuc) (GLP-1 receptor) [nM] | EC50 hGLP1R 100% hP (CreLuc) (GLP-1 receptor) [nM] | EC50 hGIPR 0.5% hP (CreLuc) (GIP receptor) [nM] | EC50 hGIPR 100% hP (CreLuc) (GIP receptor) [nM] | EC50 hNPY2R 0.5% hP (CreLuc) (NPY2 receptor) [nM] | EC50 hNPY2R 100% hP (CreLuc) (NPY2 receptor) [nM] |
| --- | --- | --- | --- | --- | --- | --- |
| Y[Aib]EGTFTSDYSI[Aib]LEKQAQ[Aib]AFVEWLIKGGPSSYASLRHYYNWLTRQRY-NH2 (not fully specified (residue 28); also: TFA salt) [Compound 183] | 0.22 | 12.8 | 0.28 | 6.83 | 9.34 | 56.6 |
| Y[Aib]EGTFTSDYSI[Aib]LEK(Ac)QAQ[Aib]AFVEWLIK([εLys-glu-γGlu-γGlu-γGlu-γGlu-γGlu-C20 diacid])GGPSSGASLRHYYNWLTRQRY-NH2 (reading uncertain; also: TFA salt) [Compound 192] | 0.13 | 2.01 | 0.28 | 1.95 | 20.5 | 128 |
| Y[Aib]EGTFTSDYSI[Aib]LEKQAQ[Aib]EFVQWLIK([γGlu-γGlu-γGlu-γGlu-γGlu-γGlu-C20 diacid])GGPSEGASLRHYYNWLTRQRY-NH2 (also: TFA salt) [Compound 185] | 0.4 | 11 | 0.33 | 5.59 | 13.3 | 66.8 |
| Y[Aib]EGTFTSDYSI[Aib]LEKQAQ[Aib]AFVQWLIK([AEEA-AEEA-Glu-Glu-Glu-C18 diacid])GGPEEGASLRHYYNWLTRQRY-NH2 (also: TFA salt) [Compound 188] | 0.15 | 5.93 | 0.12 | 1.16 | 16.9 | 105 |
| B1 | 0.1 | 3.61 | 0.2 | 3.88 | 19.6 | 107 |
| B2 | 0.31 | 6.06 | 0.43 | 3.61 | 42.6 | 158 |
| B3 | 0.17 | 2.92 | 0.23 | 2 | > 99.9 | > 999 |
| B4 | 0.1 | 1.09 | 0.13 | 1.18 | > 100 | > 1000 |
| B5 | 0.11 | 1.25 | 0.11 | 0.77 | > 99.9 | 904 |
| B6 | 0.13 | 2.73 | 0.21 | 1.39 | 70.4 | 256 |
| B7 | 0.13 | 1.9 | 0.25 | 1.42 | 26.1 | 137 |
| B8 | 0.2 | 13.6 | 0.25 | 3.68 | 25.2 | 152 |
| B9 | 0.18 | 1.87 | 0.28 | 1.37 | 46 | 125 |
| Y[Aib]EGTFTSDYSI[Aib]LEKQAQ[Aib]AFVQWLIK([AEEA-AEEA-γGlu-γGlu-γGlu-γGlu-C20 diacid])GGPEEGASLRHYYNWLTRQRY-NH2 (also: TFA salt) [Compound 193] | 0.36 | 20.8 | 0.5 | 3.4 | 13.6 | 73.3 |
| Y[Aib]EGTFTSDYSI[Aib]LEKQAQ[Aib]EFVQWLIK([γGlu-γGlu-γGlu-γGlu-C20 diacid])GGPSEGASLRHYYNWLTRQRY-NH2 (also: TFA salt) [Compound 194] | 0.29 | 14.2 | 0.2 | 1.83 | 13.8 | 93.7 |
| Y[Aib]EGTFTSDYSI[Aib]LEEQAQ[Aib]AFVEWLIK([εLys-γGlu-γGlu-γGlu-γGlu-γGlu-C20 diacid])GGPSSGASLRHYYNWLTRQRY-NH2 (also: TFA salt) [Compound 181] | 0.14 | 3.23 | 0.16 | 1.23 | 16.5 | 102 |
| Y[Aib]EGTFTSDYSI[Aib]LEKQAQ[Aib]AFVQWLIK([εLys-γGlu-γGlu-γGlu-γGlu-γGlu-C20 diacid])GGPSEYASLRHYYNWLTRQRY-NH2 (also: TFA salt) [Compound 189] | 0.21 | 10.2 | 0.31 | 5.06 | 8.03 | 45.8 |
